Results on 2 molecules are retold here after patent US20210284694A1 (published 2021).

Assay [1] concerns the target T1, biotinylated PCSK9 (UniProt Q8NBP7 31-692, limits assumed, biotinylated).
T1 construct: also called europium-labeled PCSK9
The assay is described as follows: method of the KD not told; tracer of the Alexa FRET Standard assay.

Assay [2] addresses T1, biotinylated PCSK9. Description: method of the KD not told; tracer of the Alexa FRET Plus assay.

Starred links: 1 amine or outer side, 2 acyl side, 3 side chain; linkers in the order of their positions; H or OH if unused. Positions of bridges follow the written chain, without caps; N, C: chain ends. Non-standard residues stand in square brackets, D forms with d. Phe(4-OMe) = COc1ccc(C[C@H](N[*:1])C(=O)[*:2])cc1; Trp(5-F) = N[C@@H](Cc1c[nH]c2ccc(F)cc12)C(=O)O; mXylylene = c1cc(C[*:1])cc(C[*:2])c1; αMeP = C[C@@]1(C(=O)O)CCCN1; Mpa = O=C(O)CCS

By Kd is commonly meant the constant that tells how readily two partners part at equilibrium.

T1 sequence (Q8NBP7 31-692 limits assumed): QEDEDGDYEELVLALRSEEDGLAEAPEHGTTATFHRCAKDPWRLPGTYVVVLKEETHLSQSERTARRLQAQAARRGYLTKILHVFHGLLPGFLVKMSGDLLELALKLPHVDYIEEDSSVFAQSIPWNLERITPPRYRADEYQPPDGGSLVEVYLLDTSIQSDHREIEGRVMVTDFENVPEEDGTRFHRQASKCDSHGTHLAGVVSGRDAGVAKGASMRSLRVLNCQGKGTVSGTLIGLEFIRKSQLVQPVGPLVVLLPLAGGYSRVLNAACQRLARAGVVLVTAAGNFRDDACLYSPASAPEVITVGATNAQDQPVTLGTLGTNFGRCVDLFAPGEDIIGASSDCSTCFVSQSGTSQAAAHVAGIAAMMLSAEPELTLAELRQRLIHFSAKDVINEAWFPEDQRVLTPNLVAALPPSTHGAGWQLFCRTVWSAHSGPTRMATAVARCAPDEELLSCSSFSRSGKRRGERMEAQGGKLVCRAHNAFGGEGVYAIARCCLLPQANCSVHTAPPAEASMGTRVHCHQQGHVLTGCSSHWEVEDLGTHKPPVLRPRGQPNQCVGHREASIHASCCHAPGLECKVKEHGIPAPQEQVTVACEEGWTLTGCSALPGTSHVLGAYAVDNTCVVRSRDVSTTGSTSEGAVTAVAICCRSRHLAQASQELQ

B1: Reagent A (peptide)
peptide: [Mpa]K(AlexaFluor647)G[Trp(5-F)][Trp(5-F)]DHY[αMeP]C-NH2
modifications: linker N-10 via mXylylene
notes: also called AlexaFluor647 (AF) tagged cyclic peptide; AF cyclic peptide
B1 gave a Kd in assay [1] of 83 nM.

B2: Reagent B (peptide)
peptide: [Mpa]K(AlexaFluor647)[dA][Trp(5-F)][Trp(5-F)]DH[Phe(4-OMe)][αMeP]C-NH2
modifications: linker N-10 via mXylylene
notes: as for B1
Consider B2, for which the Kd in assay [2] is 35 nM.
